# Source: paper PMC2867295 (The Journal of Cell Biology, 2010)
# Target: mouse calmodulin, bacterially expressed and biotinylated (mouse, UniProt P0DP26 1-149, biotinylated (EZ-link Sulfo-NHS-LC-Biotinylation kit))
# Assay: far-Western, overlay or dot blot
binder,measurement,value
"Pcdp1-2, fragment aa 447–530 of mouse Pcdp1 with the uncharacterized predicted CaM-binding motif (domain or fragment) PLVNNVWLTRHRAQRRFQQAARKIMLERRLLSMLGAIRGMDKESILRKIIQVNGKLIQGENPSRGRRAHLKQEDNIWRYSLESE",binding result,binds
